# Measured values: paper PMC1885664 (Nucleic Acids Research, 2007)
# Residue numbers refer to the chain shown, from its start. Names may count otherwise.
# B1: Pseudomonas aeruginosa RdgC (recombination-associated DNA-binding protein), wild type (natural protein, Pseudomonas aeruginosa PAO1, UniProt Q9HYX7 1-306, looked up)
# chain: MWFRNLLVYRLTQDLQLDADSLEKALGEKSARPCASQELTTYGFTAPFGKGPDAPLVHVSQDFFLISARKEERILPGSVVRDALKEKVDEIEAQQMRKVYKKERDQLKDEIVQTLLPRAFIRRSSTFAAIAPSLGLILVDSASAKKAEDLLSTLREALGSLPVRPLSVKVAPTATLTDWVKTQEAAGDFHVLDECELRDTHEDGGVVRCKRQDLTSEEIQLHLTAGKLVTQLSLAWSDKLSFVLDDKLAVKRLRFEDLLQEQAEKDGGEDALGQLDASFTLMMLTFAEFLPALFEALGGEEIPQGV
# B2: P. aeruginosa RdgC K146A mutant (natural protein, Pseudomonas aeruginosa PAO1, UniProt Q9HYX7 1-306, looked up)
# chain: B1 chain with K146A
# B3: P. aeruginosa RdgC R122D mutant (natural protein, Pseudomonas aeruginosa PAO1, UniProt Q9HYX7 1-306, looked up)
# chain: B1 chain with R122D
# B4: P. aeruginosa RdgC R208A mutant (natural protein, Pseudomonas aeruginosa PAO1, UniProt Q9HYX7 1-306, looked up)
# chain: B1 chain with R208A
# B5: P. aeruginosa RdgC R252A mutant (natural protein, Pseudomonas aeruginosa PAO1, UniProt Q9HYX7 1-306, looked up)
# chain: B1 chain with R252A
# B6: P. aeruginosa RdgC F120A mutant (natural protein, Pseudomonas aeruginosa PAO1, UniProt Q9HYX7 1-306, looked up)
# chain: B1 chain with F120A
# B7: P. aeruginosa RdgC R211D mutant (natural protein, Pseudomonas aeruginosa PAO1, UniProt Q9HYX7 1-306, looked up)
# chain: B1 chain with R211D
# B8: P. aeruginosa RdgC R198A mutant (natural protein, Pseudomonas aeruginosa PAO1, UniProt Q9HYX7 1-306, looked up)
# chain: B1 chain with R198A
# B9: P. aeruginosa RdgC R4A mutant (natural protein, Pseudomonas aeruginosa PAO1, UniProt Q9HYX7 1-306, looked up)
# chain: B1 chain with R4A
# B10: P. aeruginosa RdgC Q212A mutant (natural protein, Pseudomonas aeruginosa PAO1, UniProt Q9HYX7 1-306, looked up)
# chain: B1 chain with Q212A
# B11: P. aeruginosa RdgC K70D mutant (natural protein, Pseudomonas aeruginosa PAO1, UniProt Q9HYX7 1-306, looked up)
# chain: B1 chain with K70D
# B12: P. aeruginosa RdgC R81D mutant (natural protein, Pseudomonas aeruginosa PAO1, UniProt Q9HYX7 1-306, looked up)
# chain: B1 chain with R81D
# Target: the molecule itself
# Assay: crystal structure
row,Protein,stoichiometry N
1,B1,2

# Target: the molecule itself
# Assay: SEC
row,Protein,binding result
1,B2,binds
2,B3,binds
3,B4,binds
4,B5,binds
5,B6,binds
6,B7,binds
7,B8,binds
8,B9,binds
9,B10,binds
10,B11,binds
11,B12,binds
